Primed or numbered codes have the meaning given here. * marks the point of attachment. EDANS′ = N-[2-[(5-sulfo-1-naphthalenyl)amino]ethyl]-L-α-glutamine (donor); DABCYL = 4-((4-(dimethylamino)phenyl)azo)benzoyl (quencher); Benzoyl(2-NHMe) = CNc1ccccc1C(=O)*
Target: presenilin homolog from the methanogen Methanoculleus marisnigri JR1, wild type (Methanoculleus marisnigri JR1)

| Km of cleavage, FRET enzyme kinetics assay (Michaelis-Menten), in DDM [µM] | Km of cleavage, FRET enzyme kinetics assay (Michaelis-Menten), in bicelles (DMPC/CHAPSO) [µM] | Km of cleavage, FRET enzyme kinetics assay (Michaelis-Menten), in DDM, no inhibitor, 37 °C, 500 nM MCM.IAP [µM] | Binder |
| --- | --- | --- | --- |
| 7.5 | 2.8 |  | {Benzoyl(2-NHMe)}-GGVVIATV-{Lys(DNP)} [C100FRET NMA-GGVVIATV-DNP] |
|  | 6.3 | 4.9 | {EDANS′}-LVIVGLTFAV-{DABCYL} [ErbFRET EDANS-…-DABCYL] |
